Target: the molecule itself
Assay: AFM imaging + single-molecule force spectroscopy (AFM-SMFS); purified ectodomains in 50 mM TrisHCl/150 mM NaCl/1 mM CaCl2 pH 7.5; imaging on freshly cleaved mica, tapping mode in liquid; SMFS on NTA-Ni2+ coverslips through the His tags, differing persistence length across a trace taken as two cadherins stretched in parallel

B1: His-tagged full murine PCDH15 ectodomain (domain or fragment)
chain: not shown
notes: protocadherin 15 (PCDH15), murine, full ectodomain (11 EC domains), UniProtKB Q99PJ1; also called protocadherin 15; full-length PCDH15 ectodomain; not shown: His tag, C-terminal, kept
binding result: binds
